Legend:
Ku70/80 full length = Ku70/80 full length (Homo sapiens, UniProt P12956;P13010 1-609;1-732); test: EMSA; SAP EMSA: 105 mM KCl (400 bp) or 46 mM KCl (153 bp), 3 mM Tris-HCl pH 7.5, 0.1 mM EDTA, 3-4% glycerol, 15 min room temp, agarose (0.8% or 1.5%); Ku70/80 EMSA: 5; settings: protein: recombinant; copies: 1;1
Ku70 SAP domain WT = Ku70 SAP domain WT (Homo sapiens, UniProt P12956 539-609); test: EMSA; 46 mM KCl; preferred over nucleosome; SAP EMSA: 105 mM KCl (400 bp) or 46 mM KCl (153 bp), 3 mM Tris-HCl pH 7.5, 0.1 mM EDTA, 3-4% glycerol, 15 min room temp, agarose (0.8% or 1.5%); Ku70/80 EMSA: 5; settings: protein: recombinant; tags: none (His14-SUMObd cleaved)
Chain of Ku70 SAP domain WT (P12956 539-609): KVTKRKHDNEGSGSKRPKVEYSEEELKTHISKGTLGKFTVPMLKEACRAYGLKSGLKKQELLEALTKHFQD

Ku70/80-dSAP = Ku70/80-dSAP (Homo sapiens, UniProt P12956;P13010 1-544;1-732); test: EMSA; higher shift than full length, multiple loading; SAP EMSA: 105 mM KCl (400 bp) or 46 mM KCl (153 bp), 3 mM Tris-HCl pH 7.5, 0.1 mM EDTA, 3-4% glycerol, 15 min room temp, agarose (0.8% or 1.5%); Ku70/80 EMSA: 5; settings: protein: recombinant; copies: 1;1
Chain of Ku70/80-dSAP (P12956 1-544, chain 1 of 2): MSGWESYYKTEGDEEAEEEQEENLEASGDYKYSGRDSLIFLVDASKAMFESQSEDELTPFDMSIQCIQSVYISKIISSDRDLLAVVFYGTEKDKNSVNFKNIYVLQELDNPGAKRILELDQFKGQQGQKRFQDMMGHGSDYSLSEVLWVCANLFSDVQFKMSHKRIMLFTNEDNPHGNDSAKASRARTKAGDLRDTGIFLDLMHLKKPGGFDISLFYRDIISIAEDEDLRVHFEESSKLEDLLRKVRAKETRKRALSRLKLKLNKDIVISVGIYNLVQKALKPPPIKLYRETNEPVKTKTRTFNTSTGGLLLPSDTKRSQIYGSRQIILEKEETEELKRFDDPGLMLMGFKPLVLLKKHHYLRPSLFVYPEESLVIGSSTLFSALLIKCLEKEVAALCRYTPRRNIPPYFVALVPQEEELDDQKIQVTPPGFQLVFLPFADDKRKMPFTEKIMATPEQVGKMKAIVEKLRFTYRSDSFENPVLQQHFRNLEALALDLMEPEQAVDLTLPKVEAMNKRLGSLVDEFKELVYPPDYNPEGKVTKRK
Chain of Ku70/80-dSAP (P13010 whole entry, chain 2 of 2): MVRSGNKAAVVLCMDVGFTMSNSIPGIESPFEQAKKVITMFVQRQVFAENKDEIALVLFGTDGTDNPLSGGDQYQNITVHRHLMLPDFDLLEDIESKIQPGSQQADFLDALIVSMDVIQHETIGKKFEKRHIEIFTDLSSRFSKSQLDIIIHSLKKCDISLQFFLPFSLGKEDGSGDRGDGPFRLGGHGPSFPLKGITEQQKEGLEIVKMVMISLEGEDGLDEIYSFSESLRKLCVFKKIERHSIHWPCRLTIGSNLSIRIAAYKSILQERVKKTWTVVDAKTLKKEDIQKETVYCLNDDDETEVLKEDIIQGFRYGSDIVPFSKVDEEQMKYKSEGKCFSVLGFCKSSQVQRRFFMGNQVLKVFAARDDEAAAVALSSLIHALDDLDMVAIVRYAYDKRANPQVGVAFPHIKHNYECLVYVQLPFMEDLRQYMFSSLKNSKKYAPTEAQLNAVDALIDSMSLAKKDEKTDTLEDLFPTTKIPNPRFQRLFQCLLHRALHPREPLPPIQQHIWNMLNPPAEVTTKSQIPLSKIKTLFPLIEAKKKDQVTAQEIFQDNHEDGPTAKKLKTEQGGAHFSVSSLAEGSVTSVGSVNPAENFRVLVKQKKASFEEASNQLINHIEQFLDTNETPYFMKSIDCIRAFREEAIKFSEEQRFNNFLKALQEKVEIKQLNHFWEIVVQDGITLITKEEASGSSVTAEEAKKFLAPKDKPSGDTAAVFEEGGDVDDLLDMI

Measured: binding result

Chain of Ku70/80 full length (P12956 whole entry, chain 1 of 2, the tested form may be a part): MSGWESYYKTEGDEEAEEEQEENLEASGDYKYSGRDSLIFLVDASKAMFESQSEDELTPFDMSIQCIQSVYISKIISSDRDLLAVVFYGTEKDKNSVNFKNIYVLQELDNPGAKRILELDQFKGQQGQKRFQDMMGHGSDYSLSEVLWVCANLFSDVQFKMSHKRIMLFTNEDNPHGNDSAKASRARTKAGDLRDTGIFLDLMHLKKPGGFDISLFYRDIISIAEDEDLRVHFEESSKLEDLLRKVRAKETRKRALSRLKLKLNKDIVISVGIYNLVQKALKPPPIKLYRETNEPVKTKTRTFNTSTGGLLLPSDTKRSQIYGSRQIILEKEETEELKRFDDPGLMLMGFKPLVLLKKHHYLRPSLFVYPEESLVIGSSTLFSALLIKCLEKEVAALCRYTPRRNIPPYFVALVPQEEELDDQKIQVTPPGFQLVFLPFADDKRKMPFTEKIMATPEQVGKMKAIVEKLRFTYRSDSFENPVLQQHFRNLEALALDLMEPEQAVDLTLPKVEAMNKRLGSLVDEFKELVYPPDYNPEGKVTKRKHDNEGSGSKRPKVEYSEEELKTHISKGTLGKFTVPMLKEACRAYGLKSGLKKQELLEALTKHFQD
Chain of Ku70/80 full length (P13010 whole entry, chain 2 of 2, the tested form may be a part): as the sequence (P13010 whole entry, chain 2 of 2) above

B1: 153 bp free DNA (dsDNA)
DNA 1: ATCCTGGAGAATCCCGGTGCCGAGGCCGCTCAATTGGTCGTAGACAGCTCTAGCACCGCTTAAACGCACGTACGCGCTGTCCCCCGCGTTTTAACCGCCAAGGGGATTACTCCCTAGTCTCCAGGCACGTGTCAGATATATACATCCTGTGAT
DNA 2: ATCACAGGATGTATATATCTGACACGTGCCTGGAGACTAGGGAGTAATCCCCTTGGCGGTTAAAACGCGGGGGACAGCGCGTACGTGCGTTTAAGCGGTGCTAGAGCTGTCTACGACCAATTGAGCGGCCTCGGCACCGGGATTCTCCAGGAT
binds: all assays above

Reference: paper PMC12816671
